Experiment [1] concerns the target Asp1/2/3 complex (without a tag) (Streptococcus gordonii) (UniProt Q9AET8). As to the kind of experiment: light scattering.
Experiment [2] has as its target Asp1, untagged, as co-expressed with Asp3 and tagged Asp2 (Streptococcus gordonii) (UniProt Q9AET8). As to the kind of experiment: light scattering.

Experimental findings from paper doi:10.1101/219105 are described below.

Chain of UniProt Q9AET8 (Q9AET8 whole entry): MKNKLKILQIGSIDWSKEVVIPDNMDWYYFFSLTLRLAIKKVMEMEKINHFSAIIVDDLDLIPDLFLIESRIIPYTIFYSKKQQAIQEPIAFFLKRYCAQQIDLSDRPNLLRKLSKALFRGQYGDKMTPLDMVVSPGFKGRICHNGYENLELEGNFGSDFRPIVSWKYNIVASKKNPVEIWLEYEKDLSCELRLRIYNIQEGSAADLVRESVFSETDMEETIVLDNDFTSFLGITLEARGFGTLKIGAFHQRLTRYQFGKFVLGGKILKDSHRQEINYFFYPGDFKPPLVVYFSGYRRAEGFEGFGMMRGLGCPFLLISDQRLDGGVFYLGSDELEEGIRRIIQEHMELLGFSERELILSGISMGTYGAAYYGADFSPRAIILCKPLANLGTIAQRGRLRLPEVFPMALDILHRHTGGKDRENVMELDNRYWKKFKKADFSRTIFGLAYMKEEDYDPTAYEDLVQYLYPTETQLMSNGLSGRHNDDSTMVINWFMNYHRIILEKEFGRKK

In experiment [1], “Asp1/2/3 complex (without a tag) (from UniProt Q9AET8 1-510)” displayed a stoichiometry N of 2.
For the substance “Asp3 (accessory Sec protein 3) (natural protein)”, the stoichiometry N in experiment [2] came to 1.
